The RNAGym collection of RNA variant scans (doi:10.1093/molbev/msab373)

B1: Azoarcus group I ribozyme (parent)
chain: GUGCCUUGCGCCGGGAAACCACGCAAGGGAUGGUGUCAAAUUCGGCGAAACCUAAGCGCCCGCCCGGGCGUAUGGCAACGCCGAGCCAAGCUUCGGCGCCUGCGCCGAUGAAGGUGUAGAGACUAGACGGCACCCACCUAAGGCAAACGCUAUGGUGAAGGCAUAGUCCAGGGAGUGGCGAAAGUCACACAAACCGG

Variants of: B1
Assay: reverse-splicing fitness (ratio to wild type); higher = more active; in vitro selection; Mg2+ level not given
How it was run: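 An in vitro group I ribozyme library with randomized positions was T7-transcribed and gel-purified. In triplicate, 10 pmol RNA in EPPS pH 7.5 was reacted with 50 pmoles of a 30-nt RNA substrate for 1 h at 37 °C across several added MgCl2 levels (1–48 mM), then stopped with EDTA. Products were reverse transcribed from a substrate-complementary primer, PCR-amplified and sequenced (HiSeq 4000). Fitness is a variant's read proportion after selection over that before, normalised to wild type.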
GUGCCUUGCGCCGGGAAACCACGCAAGGGAUGGUGUCAAAUUCGGCGAAACCUAAGCGCCCGCCCGGGCGUAUGGCAACGCUGAGCCAAGCUUCGGCGCCUGCGCCGAUGUAGGUGUAGAGACUAGACGGCACCCACCUAAGGCUAACGGUAUGGUGAAGGCAUAGUCCAGGGAGAGGCGAAAGUCACACAAACCGG gave a reverse-splicing fitness of 0.0103.
With GUGCCUUGCGCCGGGAAACCACGCAAGGGAUGGUGUCAAAUUCGGCGAAACCUAAGCGCCCGCCCGGGCGUAUGGCAACGCUGAGCCAAGCUUCGGCGCCUGCGCCGAUGUAGGUGUAGAGACUAGACGGCACCCACCUAAGGCUAACGGUAUGGUGAAGGCAUAGUCCAGGGAGGGGCGAAAGUCACACAAACCGG the reverse-splicing fitness was 0.00449.
For GUGCCUUGCGCCGGGAAACCACGCAAGGGAUGGUGUCAAAUUCGGCGAAACCUAAGCGCCCGCCCGGGCGUAUGGCAACGCUGAGCCAAGCUUCGGCGCCUGCGCCGAUGUAGGUGUAGAGACUAGACGGCACCCACCUAAGGCUAACGGUAUGGUGAAGGCAUAGUCCAGGGAGCGGCGAAAGUCACACAAACCGG, the reverse-splicing fitness was 0.019.
GUGCCUUGCGCCGGGAAACCACGCAAGGGAUGGUGUCAAAUUCGGCGAAACCUAAGCGCCCGCCCGGGCGUAUGGCAACGCUGAGCCAAGCUUCGGCGCCUGCGCCGAUGUAGGUGUAGAGACUAGACGGCACCCACCUAAGGCUAACGUUAUGGUGAAGGCAUAGUCGAGGGAGCGGCGAAAGUCACACAAACCGG showed a reverse-splicing fitness of 0.0127.
For GUGCCUUGCGCCGGGAAACCACGCAAGGGAUGGUGUCAAAUUCGGCGAAACCUAAGCGCCCGCCCGGGCGUAUGGCAACGCUGAGCCAAGCUUCGGCGCCUGCGCCGAUGUAGGUGUAGAGACUAGACGGCACCCACCUAAGGCUAACGUUAUGGUGAAGGCAUAGUCGAGGGAGAGGCGAAAGUCACACAAACCGG, the reverse-splicing fitness was 0.0107.
For GUGCCUUGCGCCGGGAAACCACGCAAGGGAUGGUGUCAAAUUCGGCGAAACCUAAGCGCCCGCCCGGGCGUAUGGCAACGCUGAGCCAAGCUUCGGCGCCUGCGCCGAUGUAGGUGUAGAGACUAGACGGCACCCACCUAAGGCUAACGUUAUGGUGAAGGCAUAGUCGAGGGAGUGGCGAAAGUCACACAAACCGG, the reverse-splicing fitness was 0.00898.
In the case of GUGCCUUGCGCCGGGAAACCACGCAAGGGAUGGUGUCAAAUUCGGCGAAACCUAAGCGCCCGCCCGGGCGUAUGGCAACGCUGAGCCAAGCUUCGGCGCCUGCGCCGAUGUAGGUGUAGAGACUAGACGGCACCCACCUAAGGCUAACGUUAUGGUGAAGGCAUAGUCAAGGGAGUGGCGAAAGUCACACAAACCGG, the reverse-splicing fitness is reported as 0.00818.
GUGCCUUGCGCCGGGAAACCACGCAAGGGAUGGUGUCAAAUUCGGCGAAACCUAAGCGCCCGCCCGGGCGUAUGGCAACGCUGAGCCAAGCUUCGGCGCCUGCGCCGAUGUAGGUGUAGAGACUAGACGGCACCCACCUAAGGCUAACGUUAUGGUGAAGGCAUAGUCAAGGGAGAGGCGAAAGUCACACAAACCGG gave a reverse-splicing fitness of 0.0113.
With GUGCCUUGCGCCGGGAAACCACGCAAGGGAUGGUGUCAAAUUCGGCGAAACCUAAGCGCCCGCCCGGGCGUAUGGCAACGCUGAGCCAAGCUUCGGCGCCUGCGCCGAUGUAGGUGUAGAGACUAGACGGCACCCACCUAAGGCUAACGUUAUGGUGAAGGCAUAGUCAAGGGAGGGGCGAAAGUCACACAAACCGG the reverse-splicing fitness was 0.00627.
Work on GUGCCUUGCGCCGGGAAACCACGCAAGGGAUGGUGUCAAAUUCGGCGAAACCUAAGCGCCCGCCCGGGCGUAUGGCAACGCUGAGCCAAGCUUCGGCGCCUGCGCCGAUGUAGGUGUAGAGACUAGACGGCACCCACCUAAGGCUAACGUUAUGGUGAAGGCAUAGUCAAGGGAGCGGCGAAAGUCACACAAACCGG yielded a reverse-splicing fitness of 0.00869.
In the case of GUGCCUUGCGCCGGGAAACCACGCAAGGGAUGGUGUCAAAUUCGGCGAAACCUAAGCGCCCGCCCGGGCGUAUGGCAACGCUGAGCCAAGCUUCGGCGCCUGCGCCGAUGUAGGUGUAGAGACUAGACGGCACCCACCUAAGGCUAACGGUAUGGUGAAGGCAUAGUCUAGGGAGUGGCGAAAGUCACACAAACCGG, the reverse-splicing fitness is reported as 0.00858.
GUGCCUUGCGCCGGGAAACCACGCAAGGGAUGGUGUCAAAUUCGGCGAAACCUAAGCGCCCGCCCGGGCGUAUGGCAACGCUGAGCCAAGCUUCGGCGCCUGCGCCGAUGUAGGUGUAGAGACUAGACGGCACCCACCUAAGGCUAACGUUAUGGUGAAGGCAUAGUCCAGGGAGUGGCGAAAGUCACACAAACCGG showed a reverse-splicing fitness of 0.183.
With GUGCCUUGCGCCGGGAAACCACGCAAGGGAUGGUGUCAAAUUCGGCGAAACCUAAGCGCCCGCCCGGGCGUAUGGCAACGCUGAGCCAAGCUUCGGCGCCUGCGCCGAUGUAGGUGUAGAGACUAGACGGCACCCACCUAAGGCUAACGGUAUGGUGAAGGCAUAGUCUAGGGAGAGGCGAAAGUCACACAAACCGG the reverse-splicing fitness was 0.00893.
Variant GUGCCUUGCGCCGGGAAACCACGCAAGGGAUGGUGUCAAAUUCGGCGAAACCUAAGCGCCCGCCCGGGCGUAUGGCAACGCUGAGCCAAGCUUCGGCGCCUGCGCCGAUGUAGGUGUAGAGACUAGACGGCACCCACCUAAGGCUAACGGUAUGGUGAAGGCAUAGUCUAGGGAGCGGCGAAAGUCACACAAACCGG has a reverse-splicing fitness of 0.0107.
GUGCCUUGCGCCGGGAAACCACGCAAGGGAUGGUGUCAAAUUCGGCGAAACCUAAGCGCCCGCCCGGGCGUAUGGCAACGCUGAGCCAAGCUUCGGCGCCUGCGCCGAUGUAGGUGUAGAGACUAGACGGCACCCACCUAAGGCUAACGGUAUGGUGAAGGCAUAGUCUAGGGAGGGGCGAAAGUCACACAAACCGG gave a reverse-splicing fitness of 0.00616.
